1 molecule from patent US20150299332A1 (UNIVERSITY OF TSUKUBA, published 2015) can be followed below.

The assay concerns the target T1, human CD300a-Fc (human, UniProt Q9UGN4 18-180).
T1 construct: extracellular domain; Made from a chimeric cDNA as in Document 25; not shown: human IgG1 Fc
T1 sequence (looked up): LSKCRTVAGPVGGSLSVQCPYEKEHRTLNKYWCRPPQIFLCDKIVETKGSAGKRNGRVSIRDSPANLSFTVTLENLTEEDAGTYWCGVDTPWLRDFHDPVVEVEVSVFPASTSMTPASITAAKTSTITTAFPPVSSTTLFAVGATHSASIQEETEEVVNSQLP
Description: flow cytometry binding inhibition: human CD300a-Fc on apoptotic Jurkat cells with TX49 (binding of TX49 to CD300a-Fc shown by blocking). The method, then: First, Jurkat cells (human T-cell line) were suspended in RPMI 1640 medium, and the resulting medium was irradiated with UV for 60 minutes to prepare apoptotic Jurkat cells.
Further, cytometry analysis was carried out under the same test conditions as in Reference Example 1B except that the “Jurkat cell-derived apoptotic cells” were used as apoptotic cells instead of the apoptotic cells derived from wild-type mouse thymocytes; “human CD300a-Fc” was used instead of the “mouse CD300a-Fc”; and “TX49” or “control human IgG1” was used instead of “TX41” (results: FIG. 2E “TX49” or “HuIgG1”). “TX49” is an anti-human CD300a antibody (monoclonal antibody), and blocks binding of CD300a to the ligand.
In general terms: Flow cytometry measures light scatter and fluorescence of single cells or particles in a stream.

B1: Human CD300a monoclonal antibody TX49 (mouse IgG1) (antibody, V domains shown)
VH: EVQLQQSGAELVKPGASVKLSCKASGYTFTSYWMQWVKQRPGQGLEWIGEIDPSDSYTNYNQKFKGKATLTVDTSSSTTYMQLSSLTSEDSAVYYCARWGMAYGTSSYWYFDVWGTGTTVTVSS
VL: DCDIQMTQTTSSLSASLGDRVTISCRASQDISNYLNWYQQKPDGTVKLLIYYTSRLHSGVPSRFSGSGSGTDYSLTISNLEQEDIATYFCQQGNTLPWTFGGGTKLEIKR
notes: also called anti-human CD300a monoclonal antibody; anti-human CD300a antibody
As for B1, the binding result is listed as “binds”.
